From publication PMC11861179, “Propionate metabolism in Desulfurella acetivorans” (Frontiers in Microbiology, 2025)

Key:
Assay in all cases: purified protein
[1] = test system: CC(=O)SCCNC(=O)CCNC(=O)[C@H](O)C(C)(C)COP(=O)(O)OP(=O)(O)OC[C@H]1O[C@@H](n2cnc3c(N)ncnc32)[C@H](O)[C@@H]1OP(=O)(O)O; conditions: co-substrate oxaloacetate, 100 mM Tris-HCl pH 7.8, 55°C
[2] = test system: CCC(=O)SCCNC(=O)CCNC(=O)[C@H](O)C(C)(C)COP(=O)(O)OP(=O)(O)OC[C@H]1O[C@@H](n2cnc3c(N)ncnc32)[C@H](O)[C@@H]1OP(=O)(O)O; conditions: co-substrate oxaloacetate, 100 mM Tris-HCl pH 7.8, 55°C
[3] = test system: CC(C)(COP(=O)(O)OP(=O)(O)OC[C@H]1O[C@@H](n2cnc3c(N)ncnc32)[C@H](O)[C@@H]1OP(=O)(O)O)[C@@H](O)C(=O)NCCC(=O)NCCS; conditions: citrate cleavage direction, 55°C
O=C(O)CC(=O)C(=O)O = conditions: co-substrate acetyl-CoA, 100 mM Tris-HCl pH 7.8, 55°C

## Si-citrate/2-methylcitrate synthase (AHF97591) (Desulfurella acetivorans A63)
[1]
  Km: 14 ± 1.8 µM
  Vmax: 26 µmol/min/mg
  kcat/Km: 1500 M⁻¹ s⁻¹
[2]
  Km: 22 ± 3.5 µM
  Vmax: 7.4 µmol/min/mg
  kcat/Km: 300 M⁻¹ s⁻¹
[3]
  Km: 41 ± 11 µM
  Vmax: 0.1 µmol/min/mg
  kcat/Km: 2000 M⁻¹ s⁻¹
O=C(O)CC(=O)C(=O)O
  Km: 30 ± 4.4 µM
  Vmax: 21 µmol/min/mg
  kcat/Km: 600 M⁻¹ s⁻¹
